Patent publication US20120316071A1 (published 2012)
Where a chain is given by its changes, count along the chain named. Names and notes keep the numbering of the source. Blank lines part the entries; values can stand above or below the binder they belong to.

Tests used:
[1] = molecular target: T1, rHuman CD44/Fc Chimera, CF (R&D Systems Cat#3660-CD) (human, UniProt P16070 21-220); assay: ECL multispot (MSD) assay, antigen spotted on plate; blank spot of this row 511
T1 construct: Bought recombinant protein; Fc part of the bought chimera not given

[2] = molecular target: T2, rHuman EGF R/Fc Chimera, CF (R&D Systems Cat#344-ER) (human, UniProt P00533 25-645); assay: as above
T2 construct: Bought recombinant protein; also called epidermal growth factor receptor; Fc part of the bought chimera not given

[3] = molecular target: T3, Recombinant Human DLL4 (R&D Systems Cat#1506-D4/CF) (human, UniProt Q9NR61 27-524); assay: as above
T3 construct: Bought recombinant protein; also called delta-like protein 4; rHuman DLL4

[4] = molecular target: T4, rHuman HGF R/c-MET/Fc Chimera, CF (R&D Systems Cat#358-MT/CF) (human, UniProt P08581 25-932); assay: as above
T4 construct: Bought recombinant protein; also called HGF R/Fc; hepatocyte growth factor receptor; Fc part of the bought chimera not given
T4 sequence (P08581 25-932, change not shown): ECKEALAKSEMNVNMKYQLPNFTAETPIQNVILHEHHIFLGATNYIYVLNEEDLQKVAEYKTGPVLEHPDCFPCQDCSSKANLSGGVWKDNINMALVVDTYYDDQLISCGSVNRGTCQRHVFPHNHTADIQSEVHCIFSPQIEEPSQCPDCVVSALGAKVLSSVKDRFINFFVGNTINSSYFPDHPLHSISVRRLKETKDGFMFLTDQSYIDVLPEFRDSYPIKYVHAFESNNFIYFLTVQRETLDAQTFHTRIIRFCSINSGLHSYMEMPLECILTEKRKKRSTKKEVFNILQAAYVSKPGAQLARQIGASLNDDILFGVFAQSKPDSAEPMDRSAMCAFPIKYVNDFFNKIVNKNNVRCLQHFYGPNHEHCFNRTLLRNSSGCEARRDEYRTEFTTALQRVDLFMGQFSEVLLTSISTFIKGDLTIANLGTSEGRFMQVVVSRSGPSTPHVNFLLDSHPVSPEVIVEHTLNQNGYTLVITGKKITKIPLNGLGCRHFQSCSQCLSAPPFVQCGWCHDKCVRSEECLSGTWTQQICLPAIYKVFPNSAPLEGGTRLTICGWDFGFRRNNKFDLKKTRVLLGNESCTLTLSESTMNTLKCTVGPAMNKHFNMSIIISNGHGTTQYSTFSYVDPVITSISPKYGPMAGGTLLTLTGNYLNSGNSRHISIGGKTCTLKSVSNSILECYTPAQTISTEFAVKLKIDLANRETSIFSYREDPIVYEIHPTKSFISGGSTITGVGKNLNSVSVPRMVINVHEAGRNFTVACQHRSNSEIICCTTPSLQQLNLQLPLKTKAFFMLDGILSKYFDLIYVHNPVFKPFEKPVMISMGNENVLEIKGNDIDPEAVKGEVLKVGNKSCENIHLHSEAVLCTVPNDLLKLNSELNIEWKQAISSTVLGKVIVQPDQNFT

[5] = molecular target: T5, rHuman P-Cadherin/Fc Chimera, CF (R&D Systems Cat#861-PC) (human, UniProt P22223 108-654); assay: as above
T5 construct: Bought recombinant protein; Fc part of the bought chimera not given

[6] = molecular target: T6, rHuman IGF-1 sR, (IGF-1 sR), CF (R&D Systems Cat#391-GR) (human, UniProt P08069 31-932); assay: as above
T6 construct: Bought recombinant soluble receptor; also called insulin-like growth factor-1 soluble receptor

[7] = molecular target: T7, rHuman Erythropoietin R/Fc Chimera, CF (R&D Systems Cat#963-ER) (human, UniProt P19235 25-250); assay: as above
T7 construct: Bought recombinant protein; also called EPO R; EPO R/Fc; Fc part of the bought chimera not given
T7 sequence (looked up): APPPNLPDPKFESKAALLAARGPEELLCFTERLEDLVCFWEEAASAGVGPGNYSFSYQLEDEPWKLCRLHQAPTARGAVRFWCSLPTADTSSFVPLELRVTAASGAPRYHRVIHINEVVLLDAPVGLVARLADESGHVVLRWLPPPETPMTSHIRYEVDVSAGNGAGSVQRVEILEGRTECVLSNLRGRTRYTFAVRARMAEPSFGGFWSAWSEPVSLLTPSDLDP

[8] = molecular target: T8, rHuman Notch-1/Fc Chimera, CF (R&D Systems Cat#3647-TK) (human, UniProt P46531 19-526); assay: as above
T8 construct: Bought recombinant protein; Fc part of the bought chimera not given

[9] = molecular target: T9, rHuman ErbB2/Fc Chimera, CF (R&D Systems Cat#1129-ER) (human, UniProt P04626 23-652); assay: as above
T9 construct: Bought recombinant protein; also called human epidermal growth factor 2 receptor; Fc part of the bought chimera not given

[10] = molecular target: T10, rHuman Notch-1/Fc Chimera, CF (human, UniProt P46531 19-526); assay: ECL multispot (MSD) assay, antigen spotted on the plate, Fab in solution; blank spot of the same well 298
T10 construct: Bought from R&D Systems; Fc part of the bought chimera not given

[11] = molecular target: T11, rHuman P-Cadherin/Fc Chimera, CF (human, UniProt P22223 108-654); assay: as above
T11 construct: Bought from R&D Systems; Fc part of the bought chimera not given

[12] = molecular target: T12, rHuman ErbB2/Fc Chimera, CF (human, UniProt P04626 23-652); assay: as above
T12 construct: Bought from R&D Systems; also called human epidermal growth factor 2 receptor; Fc part of the bought chimera not given

[13] = molecular target: T13, rHuman Erythropoietin R/Fc Chimera, CF (human, UniProt P19235 25-250); assay: as above
T13 construct: Bought from R&D Systems; also called EPO R; EPO R/Fc; Fc part of the bought chimera not given
T13 sequence (looked up): T7 sequence (looked up)

[14] = molecular target: T14, rHuman EGF R/Fc Chimera, CF (human, UniProt P00533 25-645); assay: as above
T14 construct: Bought from R&D Systems; also called epidermal growth factor receptor; Fc part of the bought chimera not given

[15] = molecular target: T15, rHuman IGF-1 sR, (IGF-1 sR), CF (human, UniProt P08069 31-932); assay: as above
T15 construct: Bought from R&D Systems as a soluble receptor; also called insulin-like growth factor-1 soluble receptor

[16] = molecular target: T16, rHuman CD44/Fc Chimera, CF (human, UniProt P16070 21-220); assay: as above
T16 construct: Bought from R&D Systems; Fc part of the bought chimera not given

Recombinant Human DLL4 = molecular target: T17, Recombinant Human DLL4 (human, UniProt Q9NR61 27-524); assay: as above
T17 construct: Bought from R&D Systems; also called delta-like protein 4; rHuman DLL4

[17] = molecular target: T18, rHuman HGF R/c-MET/Fc Chimera, CF (human, UniProt P08581 25-932); assay: as above
T18 construct: Bought from R&D Systems; also called HGF R/Fc; hepatocyte growth factor receptor; Fc part of the bought chimera not given
T18 sequence (P08581 25-932, change not shown): as the sequence (P08581 25-932, change not shown) above

[18] = molecular target: T1, rHuman CD44/Fc Chimera, CF (R&D Systems …); assay: ECL multispot (MSD) assay, antigen spotted on plate; blank spot of this row 332
[19] = molecular target: T2, rHuman EGF R/Fc Chimera, CF (R&D …); assay: as above
[20] = molecular target: T3, Recombinant Human DLL4 (R&D Systems …); assay: as above
[21] = molecular target: T4, rHuman HGF R/c-MET/Fc Chimera, CF (R&D …); assay: as above
[22] = molecular target: T5, rHuman P-Cadherin/Fc Chimera, CF (R&D …); assay: as above
[23] = molecular target: T6, rHuman IGF-1 sR, (IGF-1 sR), CF (R&D …); assay: as above
[24] = molecular target: T7, rHuman Erythropoietin R/Fc Chimera, CF …; assay: as above
[25] = molecular target: T8, rHuman Notch-1/Fc Chimera, CF (R&D …); assay: as above
[26] = molecular target: T9, rHuman ErbB2/Fc Chimera, CF (R&D …); assay: as above
[27] = molecular target: T1, rHuman CD44/Fc Chimera, CF (R&D Systems …); assay: ECL multispot (MSD) assay, antigen spotted on plate; blank spot of this row 294
[28] = molecular target: T2, rHuman EGF R/Fc Chimera, CF (R&D …); assay: as above
[29] = molecular target: T3, Recombinant Human DLL4 (R&D Systems …); assay: as above
[30] = molecular target: T4, rHuman HGF R/c-MET/Fc Chimera, CF (R&D …); assay: as above
[31] = molecular target: T5, rHuman P-Cadherin/Fc Chimera, CF (R&D …); assay: as above
[32] = molecular target: T6, rHuman IGF-1 sR, (IGF-1 sR), CF (R&D …); assay: as above
[33] = molecular target: T7, rHuman Erythropoietin R/Fc Chimera, CF …; assay: as above
[34] = molecular target: T8, rHuman Notch-1/Fc Chimera, CF (R&D …); assay: as above
[35] = molecular target: T9, rHuman ErbB2/Fc Chimera, CF (R&D …); assay: as above

B2: Fab VH1-46_IGHD6-6*01_IGHJ1*01 S102A/S103P/S104F/H111F (APFF) & L6_IGKJ1*01 S31R (Fab, V domains shown)
VH: QVQLVQSGAEVKKPGASVKVSCKASGYTFTSYYMHWVRQAPGQGLEWMGIINPSGGSTSYAQKFQGRVTMTRDTSTSTVYMELSSLRSEDTAVYYCAREEYAPFSAEYFQFWGQGTLVTVSS
VL: EIVLTQSPATLSLSPGERATLSCRASQSVSRYLAWYQQKPGQAPRLLIYDASNRATGIPARFSGSGSGTDFTLTISSLEPEDFAVYYCQQRSNWPPWTFGQGTKVEIKR
notes: Tested as an E. coli Fab; The heavy chain carries CH1 with His6 and Flag tags from plasmid A, the light chain a kappa CL from plasmid C; also called APFF / S31R; H:APFF & L6_IGKJ1*01 S31R
ECL signal [10]: 358
ECL signal [11]: 270
ECL signal [12]: 313
ECL signal [13]: 465
ECL signal [14]: 331
ECL signal [15]: 374
ECL signal [16]: 423
ECL signal (Recombinant Human DLL4): 166000
ECL signal [17]: 261

B4: Fab VH1-46_IGHD6-6*01_IGHJ1*01 S102A/S103P/S104F/H111F (APFF) & L6_IGKJ1*01 S31N (Fab, V domains shown)
VH: B2 VH
VL: B2 VL with R31N
notes: Fab made in E. coli: VH cloned into Plasmid A (CH1, His6 and Flag tags), kappa VL into Plasmid C (kappa CL); also called APFF / S31N
ECL signal [27]: 384
ECL signal [28]: 246
ECL signal [29]: 178000
ECL signal [30]: 300
ECL signal [31]: 342
ECL signal [32]: 379
ECL signal [33]: 363
ECL signal [34]: 267
ECL signal [35]: 197

More lines, now with the values ahead:

ECL signal [1]: 370
ECL signal [2]: 355
ECL signal [3]: 179000
ECL signal [4]: 221
ECL signal [5]: 471
ECL signal [6]: 505
ECL signal [7]: 522
ECL signal [8]: 334
ECL signal [9]: 262
B1: Fab VH1-46_IGHD6-6*01_IGHJ1*01 S102A/S103P/S104F/H111F (APFF) & L6_IGKJ1*01 S31K (Fab, V domains shown)
VH: B2 VH
VL: B2 VL with R31K
notes: Fab made in E. coli: VH cloned into Plasmid A (CH1, His6 and Flag tags), kappa VL into Plasmid C (kappa CL); also called APFF / S31K

ECL signal [18]: 384
ECL signal [19]: 351
ECL signal [20]: 191000
ECL signal [21]: 432
ECL signal [22]: 332
ECL signal [23]: 303
ECL signal [24]: 423
ECL signal [25]: 261
ECL signal [26]: 285
B3: Fab VH1-46_IGHD6-6*01_IGHJ1*01 S102A/S103P/S104F/H111F (APFF) & L6_IGKJ1*01 S31T (Fab, V domains shown)
VH: B2 VH
VL: B2 VL with R31T
notes: Fab made in E. coli: VH cloned into Plasmid A (CH1, His6 and Flag tags), kappa VL into Plasmid C (kappa CL); also called APFF / S31T
